The results in this text go back to publication doi:10.1101/2024.10.03.616038 (2024).

For orientation: Kd means the free concentration of one partner at which half of the binding sites on the other are occupied at equilibrium, for simple one-to-one binding.

Sequences and labels used below:
B1: LY-CoV1404 (IgG1) (antibody, V domains shown)
VH: QITLKESGPTLVKPTQTLTLTCTFSGFSLSISGVGVGWLRQPPGKALEWLALIYWDDDKRYSPSLKSRLTISKDTSKNQVVLKMTNIDPVDTATYYCAHHSISTIFDHWGQGTLVTVSS
VL: QSALTQPASVSGSPGQSITISCTATSSDVGDYNYVSWYQQHPGKAPKLMIFEVSDRPSGISNRFSGSKSGNTASLTISGLQAEDEADYYCSSYTTSSAVFGGGTKLTVL
B2: REGN10987 (IgG1) (antibody, V domains shown)
VH: QVQLVESGGGVVQPGRSLRLSCAASGFTFSNYAMYWVRQAPGKGLEWVAVISYDGSNKYYADSVKGRFTISRDNSKNTLYLQMNSLRTEDTAVYYCASGSDYGDYLLVYWGQGTLVTVSS
VL: QSALTQPASVSGSPGQSITISCTGTSSDVGGYNYVSWYQQHPGKAPKLMIYDVSKRPSGVSNRFSGSKSGNTASLTISGLQSEDEADYYCNSLTSISTWVFGGGTKLTVL
B3: S2K146 (IgG1) (antibody, V domains shown)
VH: QVQLVESGGVVVQPGGSLRLSCAASGFTFHDHTMHWVRQAPGKGLEWVSLITWNGGTIHYSDSVKGRFTISRDNSKNSLYLQMNSLRTEDTALYYCAKDLGRGGWYLPSDAWGQGTLVTVSS
VL: not shown
B4: DXP-604 (IgG1) (antibody, V domains shown)
VH: EVQLVESGGGLIQPGGSLRLSCAASGIIVSSNYMTWVRQAPGKGLEWVSVIYSGGSTFYADSVKGRFTISRDNSKNTLYLQMSSLRAEDTAVYYCARDLGPYGMDVWGQGTTVTVSS
VL: DIQLTQSPSFLSASVGDRVTITCRASQGISSDLAWYQQKPGKAPNLLIYAASTLQSGVPSRFSGSGSGTEFTLTISSLQPEDFATYYCQQLNSDLYTFGQGTKLEIK
B5: BD55-5840 (IgG1) (antibody, V domains shown)
VH: VQLAQSGSELRKPGASVKVSCDTSGHSFTSNAIHWVRQAPGQGLEWMGWINTDTGTPTYAQGFTGRFVFSLDTSARTAYLQISSLKADDTAVFYCARERDYSDYFFDYWGQGTLVTVSS
VL: EVVMTQSPASLSVSPGERATLSCRARASLGISTDLAWYQQRPGQAPRLLIYGASTRATGIPARFSGSGSGTEFTLTISSLQSEDSAVYYCQQYSNWPLTFGGGTKVEIK

This assay addresses SARS-CoV-2 Spike RBD, original (Wuhan) strain (SARS-CoV-2, UniProt P0DTC2). Nature of the assay: SPR. For orientation: SPR reads the build-up and loss of mass on a sensor chip optically.
On to B1, for which binding was put at a Kd of 0.977 nM. Under B2 stands 14.5 nM. Under B3 stands 0.0457 nM; under B4, 0.214 nM.

B5 yielded a Kd of 0.0759 nM.
